Experimental data: patent US20040091953

Test system: T1, peptide corresponding to the first 22 amino acids of histone 4, chemically acetylated in vitro
T1 sequence: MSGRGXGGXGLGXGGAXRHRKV

Q: hSIRT6 was tested. Which NAD-dependent deacetylase activity did it give?
A: showed no detectable activity
